Test results taken from IntAct's records for PubMed 12600646.

Biological target: RNF216, Q9NWF9-3
Sequence (Q9NWF9 379-866): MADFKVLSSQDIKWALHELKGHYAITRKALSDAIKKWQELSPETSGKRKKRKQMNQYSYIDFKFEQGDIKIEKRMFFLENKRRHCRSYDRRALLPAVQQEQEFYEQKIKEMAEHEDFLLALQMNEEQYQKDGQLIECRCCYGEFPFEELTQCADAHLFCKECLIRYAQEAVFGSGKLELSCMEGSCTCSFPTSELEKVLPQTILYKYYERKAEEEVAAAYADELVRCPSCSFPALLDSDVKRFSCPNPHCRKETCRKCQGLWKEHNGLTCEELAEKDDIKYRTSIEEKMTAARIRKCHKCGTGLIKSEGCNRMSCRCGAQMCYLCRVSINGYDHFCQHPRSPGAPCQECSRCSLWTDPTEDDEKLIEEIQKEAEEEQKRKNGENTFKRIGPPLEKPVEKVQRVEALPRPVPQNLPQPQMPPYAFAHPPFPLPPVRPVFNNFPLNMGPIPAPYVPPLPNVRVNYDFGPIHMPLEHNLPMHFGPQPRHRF

Substance: Virion infectivity factor (Human immunodeficiency virus type 1 group M subtype B (isolate NY5) (HIV-1)), P12504 Q105A;L106A;I107A
- effect of a mutation on the interaction: disrupting interaction
